The chains are these.
B1: Peroxisomal biogenesis factor 3 (Homo sapiens), P56589 (parent)
chain: MLRSVWNFLKRHKKKCIFLGTVLGGVYILGKYGQKKIREIQEREAAEYIAQARRQYHFESNQRTCNMTVLSMLPTLREALMQQLNSESLTALLKNRPSNKLEIWEDLKIISFTRSTVAVYSTCMLVVLLRVQLNIIGGYIYLDNAAVGKNGTTILAPPDVQQQYLSSIQHLLGDGLTELITVIKQAVQKVLGSVSLKHSLSLLDLEQKLKEIRNLVEQHKSSSWINKDGSKPLLCHYMMPDEETPLAVQACGLSPRDITTIKLLNETRDMLESPDFSTVLNTCLNRGFSRLLDNMAEFFRPTEQDLQHGNSMNSLSSVSLPLAKIIPIVNGQIHSVCSETPSHFVQDLLTMEQVKDFAANVYEAFSTPQQLEK
partner: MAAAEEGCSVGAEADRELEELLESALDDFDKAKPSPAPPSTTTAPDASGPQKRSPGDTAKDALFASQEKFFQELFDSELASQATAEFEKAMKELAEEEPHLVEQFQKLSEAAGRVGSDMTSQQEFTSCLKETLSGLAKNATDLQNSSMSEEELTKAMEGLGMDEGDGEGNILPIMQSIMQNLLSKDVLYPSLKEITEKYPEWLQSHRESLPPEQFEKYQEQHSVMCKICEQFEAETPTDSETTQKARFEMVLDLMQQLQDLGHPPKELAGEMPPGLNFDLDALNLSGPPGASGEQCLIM
B2: F-box only protein 28 (Homo sapiens), Q9NVF7 (parent)
chain: MAAAAEERMAEEGGGGQGDGGSSLASGSTQRQPPPPAPQHPQPGSQALPAPALAPDQLPQNNTLVALPIVAIENILSFMSYDEISQLRLVCKRMDLVCQRMLNQGFLKVERYHNLCQKQVKAQLPRRESERRNHSLARHADILAAVETRLSLLNMTFMKYVDSNLCCFIPGKVIDEIYRVLRYVNSTRAPQRAHEVLQELRDISSMAMEYFDEKIVPILKRKLPGSDVSGRLMGSPPVPGPSAALTTMQLFSKQNPSRQEVTKLQQQVKTNGAGVTVLRREISELRTKVQEQQKQLQDQDQKLLEQTQIIGEQNARLAELERKLREVMESAVGNSSGSGQNEESPRKRKKATEAIDSLRKSKRLRNRK
B3: Peroxisomal biogenesis factor 3 (Homo sapiens), P56589 (parent)
chain: B1 chain
B4: E3 ubiquitin-protein ligase TRIM37 (Homo sapiens), O94972 (parent)
chain: MDEQSVESIAEVFRCFICMEKLRDARLCPHCSKLCCFSCIRRWLTEQRAQCPHCRAPLQLRELVNCRWAEEVTQQLDTLQLCSLTKHEENEKDKCENHHEKLSVFCWTCKKCICHQCALWGGMHGGHTFKPLAEIYEQHVTKVNEEVAKLRRRLMELISLVQEVERNVEAVRNAKDERVREIRNAVEMMIARLDTQLKNKLITLMGQKTSLTQETELLESLLQEVEHQLRSCSKSELISKSSEILMMFQQVHRKPMASFVTTPVPPDFTSELVPSYDSATFVLENFSTLRQRADPVYSPPLQVSGLCWRLKVYPDGNGVVRGYYLSVFLELSAGLPETSKYEYRVEMVHQSCNDPTKNIIREFASDFEVGECWGYNRFFRLDLLANEGYLNPQNDTVILRFQVRSPTFFQKSRDQHWYITQLEAAQTSYIQQINNLKERLTIELSRTQKSRDLSPPDNHLSPQNDDALETRAKKSACSDMLLEGGPTTASVREAKEDEEDEEKIQNEDYHHELSDGDLDLDLVYEDEVNQLDGSSSSASSTATSNTEENDIDEETMSGENDVEYNNMELEEGELMEDAAAAGPAGSSHGYVGSSSRISRRTHLCSAATSSLLDIDPLILIHLLDLKDRSSIENLWGLQPRPPASLLQPTASYSRKDKDQRKQQAMWRVPSDLKMLKRLKTQMAEVRCMKTDVKNTLSEIKSSSAASGDMQTSLFSADQAALAACGTENSGRLQDLGMELLAKSSVANCYIRNSTNKKSNSPKPARSSVAGSLSLRRAVDPGENSRSKGDCQTLSEGSPGSSQSGSRHSSPRALIHGSIGDILPKTEDRQCKALDSDAVVVAVFSGLPAVEKRRKMVTLGANAKGGHLEGLQMTDLENNSETGELQPVLPEGASAAPEEGMSSDSDIECDTENEEQEEHTSVGGFHDSFMVMTQPPDEDTHSSFPDGEQIGPEDLSFNTDENSGR

In one experiment the parent is B1. To be noted: with pex19_human PEX19, P40855.
For the variant MLRSVWNFLKRHKKKCIFLGTVLGGVYILGKYGQKKIREIQEREAAEYIAQARSQYHFESNQRTCNMTVLSMLPTLREALMQQLNSESLTALLKNRPSNKLEIWEDLKIISFTRSTVAVYSTCMLVVLLRVQLNIIGGYIYLDNAAVGKNGTTILAPPDVQQQYLSSIQHLLGDGLTELITVIKQAVQKVLGSVSLKHSLSLLDLEQKLKEIRNLVEQHKSSSWINKDGSKPLLCHYMMPDEETPLAVQACGLSPRDITTIKLLNETRDMLESPDFSTVLNTCLNRGFSRLLDNMAEFFRPTEQDLQHGNSMNSLSSVSLPLAKIIPIVNGQIHSVCSETPSHFVQDLLTMEQVKDFAANVYEAFSTPQQLEK [R54S], the “effect of a mutation on the interaction” value was “with no effect”.
Still for that read-out and setting: then MLRSVWNFLKRHKKKCIFLGTVLGGVYILGKYGQKKIREIQEREAAEYIAQARRQYHFESNQRTCNMTVLSMLPTLREALMQQLNSESLQALLKNRPSNKLEIWEDLKIISFTRSTVAVYSTCMLVVLLRVQLNIIGGYIYLDNAAVGKNGTTILAPPDVQQQYLSSIQHLLGDGLTELITVIKQAVQKVLGSVSLKHSLSLLDLEQKLKEIRNLVEQHKSSSWINKDGSKPLLCHYMMPDEETPLAVQACGLSPRDITTIKLLNETRDMLESPDFSTVLNTCLNRGFSRLLDNMAEFFRPTEQDLQHGNSMNSLSSVSLPLAKIIPIVNGQIHSVCSETPSHFVQDLLTMEQVKDFAANVYEAFSTPQQLEK [T90Q], with “with no effect”; and MLRSVWNFLKRHKKKCIFLGTVLGGVYILGKYGQKKIREIQEREAAEYIAQARRQYHFESNQRTCNMTVLSMLPTLREALMQQLNSESLTALLKNRPSNKLEIWEDLKIISFTRSTVAVYSTCMLVVLLRVQLNIIGGYIYLDNAAVGKNGTTILAPPDVQQQYLSSIQHLLGDGLTELITVIKQAVQKVLGSVSLKHSLSLLDLEQKLKEIRNLVEQHKSSSWINKDGSKPLLCHYMMPDEETPLAVQACGLSPRDITTIKLLNETRDMLRSPDFSTVLNTCLNRGFSRLLDNMAEFFRPTEQDLQHGNSMNSLSSVSLPLAKIIPIVNGQIHSVCSETPSHFVQDLLTMEQVKDFAANVYEAFSTPQQLEK [E272R], with “with no effect”.

Another experiment covers variants of B2. To be noted: with stx1b_human STX1B.
MAAAAEERMAEEGGGGQGDGGSSLASGSTQRQPPPPAPQHPQPGSQALPAPALAPDQLPQNNTLVALPIVAIENILSFMSYDEISQLRLVCKRMDLVCQRMLNQGFLKVERYHNLCQKQVKAQLPRRESERRNHSLARHADILAAVETRLSELNMTFMKYVDSNLCCFIPGKVIDEIYRVLRYVNSTRAPQRAHEVLQELRDISSMAMEYFDEKIVPILKRKLPGSDVSGRLMGSPPVPGPSAALTTMQLFSKQNPSRQEVTKLQQQVKTNGAGVTVLRREISELRTKVQEQQKQLQDQDQKLLEQTQIIGEQNARLAELERKLREVMESAVGNSSGSGQNEESPRKRKKATEAIDSLRKSKRLRNRK [L152E]: the “effect of a mutation on the interaction” value is recorded as “decreasing interaction strength”.
Still for that read-out and setting: in the case of MAAAAEERMAEEGGGGQGDGGSSLASGSTQRQPPPPAPQHPQPGSQALPAPALAPDQLPQNNTLVALPIVAIENILSFMSYDEISQLRLVCKRMDLVCQRMLNQGFLKVERYHNLCQKQVKAQLPRRESERRNHSLARHADILAAVETRLSLLNMTFMKYVDSNLCCFIPGKVIDEIYRVLRYVNSTRAPQRAHEVLQELRDISSMAMEYFDEKIVPILKRKLPGSDVSGRLMGSPPVPGPSAALTTMQLFSKQNPSRQEVTKLQQQVKTNGAGVTVLRREISELRTKVQEQQKQLQDQDQKLLEQTQIIGEQNARLAELERKLREVMESAVGNSSGSGQNEESPRKLKKATEAIDSLRKSKRLRNRK [R348L] it was “increasing interaction strength”.
MAAAAEERMAEEGGGGQGDGGSSLASGSTQRQPPPPAPQHPQPGSQALPAPALAPDQLPQNNTLVALPIVAIENILSFMSYDEISQLRLVCKRMDLVCQRMLNQGFLKVERYHNLCQKQVKAQLPRRESERRNHSLARHADILAAVETRLSLLNMTFMKYVDSNLCCFIPGKVIDEIYRVLRYVNSTRAPQRAHEVLQELRDISSMAMEYFDEKIVPILKRKLPGSDVSGRLMGSPPVPGPSAALTTMQLFSKQNPSRQEVTKLQQQVKTNGAGVTVLRREISELRTKVQEQQKQLQDQDQKLLEQTQIIGEQNARLAELERKLREVMESAVGNSSGSGQNEESPRKRKKATEARDSLRKSKRLRNRK [I355R]: the “effect of a mutation on the interaction” value is given as “with no effect”.

The variants in another experiment derive from B3. To be noted: with pex16_human PEX16, Q9Y5Y5.
Sequence of pex16_human PEX16, Q9Y5Y5 (Q9Y5Y5 whole entry): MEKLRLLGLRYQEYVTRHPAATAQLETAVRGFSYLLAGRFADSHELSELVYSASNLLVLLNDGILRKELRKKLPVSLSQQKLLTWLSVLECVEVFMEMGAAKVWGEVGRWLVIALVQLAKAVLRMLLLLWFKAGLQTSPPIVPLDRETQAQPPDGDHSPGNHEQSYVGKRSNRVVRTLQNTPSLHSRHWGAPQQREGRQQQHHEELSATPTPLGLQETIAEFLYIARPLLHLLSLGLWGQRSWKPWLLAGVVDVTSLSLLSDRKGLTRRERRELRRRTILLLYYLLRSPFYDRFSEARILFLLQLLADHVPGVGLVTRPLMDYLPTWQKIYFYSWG
For the variant MLRSVWNFLKRHKKKCIFLGTVLGGVYILGKYGQKKIREIQEREAAEYIAQARSQYHFESNQRTCNMTVLSMLPTLREALMQQLNSESLTALLKNRPSNKLEIWEDLKIISFTRSTVAVYSTCMLVVLLRVQLNIIGGYIYLDNAAVGKNGTTILAPPDVQQQYLSSIQHLLGDGLTELITVIKQAVQKVLGSVSLKHSLSLLDLEQKLKEIRNLVEQHKSSSWINKDGSKPLLCHYMMPDEETPLAVQACGLSPRDITTIKLLNETRDMLESPDFSTVLNTCLNRGFSRLLDNMAEFFRPTEQDLQHGNSMNSLSSVSLPLAKIIPIVNGQIHSVCSETPSHFVQDLLTMEQVKDFAANVYEAFSTPQQLEK [R54S], the “effect of a mutation on the interaction” value is on record as “decreasing interaction strength”.
In the case of MLRSVWNFLKRHKKKCIFLGTVLGGVYILGKYGQKKIREIQEREAAEYIAQARRQYHFESNQRTCNMTVLSMLPTLREALMQQLNSESLTALLKNRPSNKLEIWEDLKIISFTRSTVAVYSTCMLVVLLRVQLNIIGGYIYLDNAAVGKNGTTILAPPDVQQQYLSSIQHLLGDGLTELITVIKQAVQKVLGSVSLKHSLSLLDLEQKLKEIRNLVEQHKSSSWINKDGSKPLLCHYMMPDEETPLAVQACGLSPRDITTIKLLNETRDMLRSPDFSTVLNTCLNRGFSRLLDNMAEFFRPTEQDLQHGNSMNSLSSVSLPLAKIIPIVNGQIHSVCSETPSHFVQDLLTMEQVKDFAANVYEAFSTPQQLEK [E272R], the “effect of a mutation on the interaction” value is “decreasing interaction strength”.

The next experiment covers variants of B4. To be noted: with pnkp_human PNKP.
On to N376R, for which the “effect of a mutation on the interaction” value is “with no effect”.
On the same count and under the same terms, in the case of F328R it was “with no effect”.

The record behind these values is IntAct's records for PubMed 38225382.
